US8465945B2, “Method for production and use of mite group 1 proteins” (Merck Patent GmbH, priority 1999, dated 2013)

Key:
[1] = system: anti-Der f 1 MAb 6A8 (capture) and anti-Der f 1 MAb 4C1 (detection); test: Monoclonal Capture ELISA; type: binding
Procedure: Assays were carried out as follows. A microtiter plate as described in Example 5 was coated overnight at 4° C. with 100 ng/well of anti-Der f 1 protein monoclonal antibody 6A8, denoted herein as anti-Der f 1 MAb 6A8, provided by Dr. Martin Chapman. The plate was washed in the manner described above. The following proteins were then added to wells, having been diluted in Assay Buffer in a 2-fold dilution series, from 0.75 to 50 ng/well: Heska native Derf1, P. pastoris-expressed PDerf1303b, and E. coli-expressed PDerf1303c. After incubation for 1 hour at room temperature, plates were washed as described in Example 5. Then 100 μl per well of a 1:1000 dilution in Assay Buffer of biotinylated anti-Der f 1 monoclonal antibody 4C1, also denoted anti-Der f 1 MAb 4C1, provided by Dr. Martin Chapman, was added for 1 hour at room temperature. Plates were washed, streptavidin-HRP conjugate was added, and plates were developed as described in Example 5.

[2] = Cysteine protease activity, cleavage of quenched fluorogenic substrate; type: biochemical; settings: for Emission (w/o E-64): 50 μM substrate, 2 hours, excitation 380 nm, emission 460 nm; for Emission (w/E-64): pre-incubated 30 minutes with E-64 1 μg/ml
Procedure: Native Der f 1 is believed to be a cysteine protease, based on homology to papain; see, for example, Chua et al, 1992, J Exp Med 167, 175-182. The Der f 1 protein secreted as a mature form by recombinant cell P. pastoris HCY215 (i.e., P. pastoris strain X33 transformed with plasmid pBC128 containing nucleic acid molecule nDerf1909b (coding strand of SEQ ID NO:28) which encodes the pro-form of Der f 1 (amino acid sequence SEQ ID NO:29)) was tested for cysteine protease activity in the following manner. Three concentrations of protein were tested for their abilities to cleave an artificial substrate in the presence or absence of a cysteine protease inhibitor. Specifically, three pairs of samples containing 0.56 μg, 1.1 μg, or 5.6 μg of P. pastoris-expressed Der f 1 protein, respectively, were incubated for 30 minutes at room temperature in 20 μl of 50 mM Tris-HCl, pH 8. One member of each pair also contained the irreversible cysteine protease inhibitor E-64 at a concentration of 1 μg/ml. After the pre-incubation, 100 μl of 50 μM quenched fluorogenic substrate z-Val-Leu-Arg-AMC (available from Enzyme Systems Products, Livermore, Calif.) was added to all six samples, and the samples were incubated for 2 hours at room temperature. Fluorescence was measured using a Perkin Elmer Luminescence Spectrometer (model #LS50B) at an excitation wavelength of 380nm and an emission wavelength of 460 nm.

B1: PDerf1303b: Recombinant Der f 1 expressed by P. pastoris HCY215 from nDerf1909b (pro-form, SEQ ID NO:29); actually secreted as mature form (protein, listed as Dermatophagoides farinae)
chain: RPASIKTFEEFKKAFNKNYATVEEEEVARKNFLESLKYVEANKGAINHLSDLSLDEFKNRYLMSAEAFEQLKTQFDLNAETSACRINSVNVPSELDLRSLRTVTPIRMQGGCGSCWAFSGVAATESAYLAYRNTSLDLSEQELVDCASQHGCHGDTIPRGIEYIQQNGVVEERSYPYVAREQRCRRPNSQHYGISNYCQIYPPDVKQIREALTQTHTAIAVIIGIKDLRAFQHYDGRTIIQHDNGYQPNYHAVNIVGYGSTQGDDYWIVRNSWDTTWGDSGYGYFQAGNNLMMIEQYPYVVIM
- OD, protein captured by MAb 6A8 and detected by MAb 4C1 ([1]; 0.75 ng protein per well): 405 OD
- OD, protein captured by MAb 6A8 and detected by MAb 4C1 ([1]; 1.5 ng protein per well): 916 OD
- OD, protein captured by MAb 6A8 and detected by MAb 4C1 ([1]; 2.5 ng protein per well): 2088 OD
- OD, protein captured by MAb 6A8 and detected by MAb 4C1 ([1]; 3.1 ng protein per well): 1544 OD
- OD, protein captured by MAb 6A8 and detected by MAb 4C1 ([1]; 6.25 ng protein per well): 1961 OD
- OD, protein captured by MAb 6A8 and detected by MAb 4C1 ([1]; 25 ng protein per well): 2156 OD
- OD, protein captured by MAb 6A8 and detected by MAb 4C1 ([1]; 50 ng protein per well): 2148 OD
- Emission (w/o E-64) ([2]; 0.56 micrograms rDer f 1): 0.861
- Emission (w/E-64) ([2]; 0.56 micrograms rDer f 1): 0.302
- Emission (w/o E-64) ([2]; 1.1 micrograms rDer f 1): 1.693
- Emission (w/E-64) ([2]; 1.1 micrograms rDer f 1): 0.765
- Emission (w/o E-64) ([2]; 5.6 micrograms rDer f 1): 9.671
- Emission (w/E-64) ([2]; 5.6 micrograms rDer f 1): 2.369
- cysteine protease activity ([2]; can be inhibited by pre-incubation with E-64): exhibits cysteine protease activity
